Laboratory results taken from patent US20210340217A1, “NOVEL PEPTIDES AND COMBINATION OF PEPTIDES FOR USE IN IMMUNOTHERAPY AGAINST OVARIAN CANCER AND OTHER CANCERS” (Immatics Biotechnologies GmbH, priority 2017, published 2021).

Tests used:
HLA-A*01:01 = HLA-A*01:01 (Homo sapiens, UniProt P04439, A114D/A174V/A182V/D101N/D185E/E176A/E190D/L180R/Q94H/R68K/S129P/T187R/V100A/V91M/W191G); assay: MHC binding assay (UV-ligand exchange, beta2m ELISA); details: peptide exchange yield
Method in brief: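 Peptide–MHC complexes formed by UV-induced exchange of a UV-cleavable peptide for the test peptide. Exchange yield measured by streptavidin-capture ELISA detecting β2m (HRP anti-β2m, TMB, A450) on 100-fold diluted samples. Quantified against refolded HLA-A*02:01/MLA-001 standards (15-500 ng/ml).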

CD8+ T cells = assay: In vitro immunogenicity for MHC class I presented peptides (in vitro priming of CD8+ T cells with aAPCs, pMHC multimer readout); type: cell-based, human
Protocol: In order to obtain information regarding the immunogenicity of the TUMAPs of the present invention, the inventors performed investigations using an in vitro T-cell priming assay based on repeated stimulations of CD8+ T cells with artificial antigen presenting cells (aAPCs) loaded with peptide/MHC complexes and anti-CD28 antibody. […]
Generation of pMHC/anti-CD28 coated beads, T-cell stimulations and readout was performed in a highly defined in vitro system using four different pMHC molecules per stimulation condition and 8 different pMHC molecules per readout condition. […]
800.000 beads/200 μl were coated in 96-well plates in the presence of 4×12.5 ng different biotin-pMHC, washed and 600 ng biotin anti-CD28 were added subsequently in a volume of 200 μl. […] For the pMHC multimer readout using 8 different pMHC molecules per condition, a two-dimensional combinatorial coding approach was used as previously described (Andersen et al., 2012) with minor modifications encompassing coupling to 5 different fluorochromes. […] Peptide specific cells were calculated as percentage of total CD8+ cells. […] In vitro priming of specific multimer+ CD8+ lymphocytes was detected by comparing to negative control stimulations.

Peptide exchange (HLA-A*01:01)	Substance	Wells positive [%] (CD8+ T cells)
++ (>20% = ++)	116 (VLLDEGAMLLY; listed as Homo sapiens) [compound 116]	–
++ (>20% = ++)	288 (SPVTSVHGGTY; listed as Homo sapiens) [compound 288]	–
++ (>20% = ++)	289 (RWEKTDLTY; listed as Homo sapiens) [compound 289]	–
++ (>20% = ++)	290 (DMDEEIEAEY; listed as Homo sapiens) [compound 290]	–
+++ (>50 = +++)	291 (ETIRSVGYY; listed as Homo sapiens) [compound 291]	–
+++ (>50 = +++)	292 (NVTMKVVSVLY; listed as Homo sapiens) [compound 292]	–

The remaining lines, values behind:

Substance	Peptide exchange (HLA-A*01:01)	Wells positive [%] (CD8+ T cells)
31 (LLDEGAMLLY; listed as Homo sapiens) [compound 31]	++++ (>75% = ++++)	–
112 (TVTGAEQIQY; listed as Homo sapiens) [compound 112]	++ (>20% = ++)	–
113 (QLDSNRLTY; listed as Homo sapiens) [compound 113]	+++ (>50 = +++)	–
114 (VMEQSAGIMY; listed as Homo sapiens) [compound 114]	++ (>20% = ++)	–
115 (FVDNQYWRY; listed as Homo sapiens) [compound 115]	+++ (>50 = +++)	–
773 (ALYGKLLKL; listed as Homo sapiens) [compound 773]	–	+++ (50%-69% = +++)
774 (VYVDDIYVI; listed as Homo sapiens) [compound 774]	–	+++ (50%-69% = +++)
